Data on one molecule can be found in patent US20240400698A1, “ANTI-CHEMOKIN LIKE RECEPTOR 1 ANTIBODIES AND THEIR THERAPEUTIC APPLICATIONS” (OSE IMMUNOTHERAPEUTICS, priority 2018, published 2024).

For assay [1], the system named is human macrophages M1 or M2. Nature of the assay: Human monocyte differentiation and polarization, CD200R by FACS and cytokine secretion by ELISA, FIG. 16. To be noted: human cells, 2 μg/ml. The class given is cell-based. On the procedure:
FIG. 16. Study of the inflammatory cytokine secretion by human macrophages during CMKLR1 activation. After differentiation of human monocytes, cells were incubated in presence of different isotype controls (mIgG4; hIgG4 or hIgG1 at […]); C7 commercial anti-CMKLR1 antibody (2 μg/ml); 2G4 or 2G1 antibodies (2 μg/ml), or other commercial anti-CMKLR1 antibodies (H6 (2 μg/ml), BZ332 (2 μg/ml) or 84939 (2 μg/ml), C15 peptides (10 nM), or RvE1 (10 ng/ml). A. Expression of the CD200R marker measured by FACS. B. IL10 cytokine secretion by M2 cells. C. CCL17 cytokine secretion by M2 cells. D. represents IL12 cytokine secretion by M1 cells. Secretion of IL10, CCL17 and IL12p40 were assessed by ELISA.
Monocytes were collected from PBMC of buffy coat of healthy volunteers and isolated by magnetic separation or by elutriation. Then, monocytes were cultured with different cocktails of cytokines to generate differentiated unpolarized macrophages or polarized macrophages. This protocol allowed to generate polarized differentiated macrophages in order to have pro-(M1) or anti-(M2) inflammatory macrophages in different wells. Monocytes were plated at 0.5·10^6 cells/mL in complete RPMI (RPMI with 10% FBS, 1% glutamine, 1% antibiotics) and 500 μL of the cell suspension was plated per well in a 24-well plate. 100 ng/ml of M-CSF was added with medium for differentiation of the cells. Cells were incubated 5 days and medium was replaced with fresh medium complemented with 100 ng/ml of M-CSF at day 3. For the polarization phases, solution of LPS-IFNg at 100 ng/ml of LPS and 20 ng/ml of IFNg complemented with isotype controls (mIgG1 or hIgG4) (2 μg/ml) or anti-CMKLR1 antibodies (2 μg/ml) (2G1 or 2G4, H6, BZ332 or 84939) or with C15 peptide (10 nM) or RvE1 (10 ng/ml) during 3 days to generate M1 macrophages. M1-IFNg macrophages could also be generated by adding only IFNg (20 ng/ml) in culture medium. […]
Cytokines secretion was detected by ELISA according to the BD manufacturer instructions. […] TMB supplied by BD Bioscience was used as substrate and colorimetric reaction was read with TECAN.
(In flow cytometry, cells or beads pass a laser one at a time.)

The target of another assay is T1, CMKLR1 receptor (Homo sapiens, UniProt Q99788).
T1 construct: host or cells: CHO-K1
T1 sequence (Q99788 1-373): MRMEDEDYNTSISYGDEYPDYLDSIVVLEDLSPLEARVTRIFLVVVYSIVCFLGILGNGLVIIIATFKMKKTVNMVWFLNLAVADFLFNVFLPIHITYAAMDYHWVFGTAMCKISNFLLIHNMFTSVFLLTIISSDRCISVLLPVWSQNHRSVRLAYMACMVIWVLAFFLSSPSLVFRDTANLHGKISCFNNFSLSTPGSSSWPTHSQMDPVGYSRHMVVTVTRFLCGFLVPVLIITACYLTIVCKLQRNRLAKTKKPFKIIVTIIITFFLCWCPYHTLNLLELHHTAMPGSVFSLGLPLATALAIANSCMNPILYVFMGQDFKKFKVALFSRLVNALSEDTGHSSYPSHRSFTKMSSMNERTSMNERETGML
Nature of the assay: Competition assay of Chemerin-dependent β-arrestin recruitment by CMKLR1 receptor, CHO-K1 CMKLR1 cells. The class given is cell-based. To be noted: FIG. 20B; antibody 1 μM to 1 nM, Chemerin 2 or 6 nM. The procedure: The day before the assay, CHO-K1 CMKLR1 cells (Discover'X ref 93-0313E2) were plated in pre-warmed cell reagent then plated in a 96-well plate at 100 μl/well of cells as (Discover'X ref 15-103) and incubated […] at 37° C., in a 5% CO2 humidified incubator. The anti-CMLKR1 antibody was diluted (22× in 7-point series of 3-fold dilutions from 1 μM to 1 nM) and cells were incubated 30 min at 37° C. with the antibody. […] The luminescence was measured after Working Detection Solution addition to the cells with a plate reader with 0.5 s integration.

Assay [2] concerns the target T2, CMKLR1 EL3 loop (SEQ ID No: 18) (Homo sapiens, UniProt Q99788).
T2 sequence (Q99788 275-307 limits assumed): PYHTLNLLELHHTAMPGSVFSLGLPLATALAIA
Briefly: ELISA binding on CMKLR1 peptide. The following applies: OD at 450 nm, FIG. 12, vs isotype control. On the procedure:
FIG. 12. Binding analysis of the anti-CMKLR1 antibody on a CMKLR1 peptide by ELISA. The binding of the 2G1 antibody ( ) on the CMKLR1 EL3 loop (SEQ ID No: 18) was compared to the isotype control antibody (3G8) (x) by measuring the OD at 450 nm by ELISA.
CMKLR1 peptide (273NH2-[…]-COOH305) (SEQ ID No: 18) (5 μg/ml) was coated in borate buffer overnight. Saturation was performed with PBS-Tween 0.1%-Gelatin 0.25% for 2 hours at 37° C. Then, 2G1 or hIgG1 antibodies were added at different concentrations for 2 hours at 37° C. […] The colorimetric reaction was read with TECAN.
Background: An ELISA detects its analyte on a solid surface through an enzyme-linked reagent.

Assay [3] relates to mice, peritonitis induced by Zymosan A. Briefly: Zymosan A peritonitis model (sepsis). Format: in vivo. The following applies: preventive injection, vs isotype control. On the procedure:
FIG. 7. […] Preventive injection of anti-CMKLR1 was performed before Zymosan A injection (1 mg per mouse in 1 mL): RvE1 (1 μg per mouse) (•), 2G1 antibody (10 μg per mouse) ( ) or isotype control antibody (x). A. PMN numbered during the first 50 hours after Zymosan A injection. B. Macrophages numbered during the first 50 hours after Zymosan A injection. C. Resolution index.
Common peritonitis is induced by intraperitoneal injection of Zymosan A® (1 mg per mouse in 1 mL). Preventive injection of anti-CMKLR1 was performed 5 minutes before Zymosan A injection: RvE1 (1 μg per mouse), 2G1 antibody (10 μg per mouse). Murine peritoneal polymorphonuclear neutrophil (PMN) and macrophages were collected at 2-4-8-16-24 and 48 h after Zymosan A injection and numbered by flow cytometry analysis to determinate the resolution index (Bannenberg et al., 2005).

B1: 2G1: chimeric anti-CMKLR1 antibody, murine variable regions (SEQ ID No: 10 and 17), human IgG1 constant regions; VH-CDR3 variant LI (antibody, V domains shown)
VH: METDTLLLWVLLLWVPGSTGDEVQLVASGGGLVQPGGSLKLSCAASGFTFSSYGMSWVRQTPDRRLELVATINRYGGSTYYPDSVKGRFTISRDNAKNTLYLQMSSLKSEDTAMYYCPRLIYYGNEGDSWGQGTTLTVSS
VL: METDTLLLWVLLLWVPGSTGDQIVLTQSPAIMSASPGEKVTMTCSASSSVSFMHWYQQKSGTSPKRWIYDTTKLTSGVPARFSGSGSGTFYSLTISSMEAEDAATYYCQQWNSKPPLTFGPGTKLELKR
modifications: human IgG1 constant regions
notes: VH-CDR3 variant LI
For the molecule B1, in assay [1], the “CCL17 secretion by M2 type macrophages” value is on record as “able to induce”, the “IL10 secretion by M2 type macrophages” value is given as “able to induce” and the “secretion of the IL12p40 cytokine by M1 type macrophages” value is “able to decrease the secretion”. The “effect on chemerin-dependent activation of the beta-arrestin” value with CMKLR1 receptor is on record as “did not significantly modify chemerin-dependent activation of the beta-arrestin”. For the same molecule, the “binding to the polypeptide forming the loop EL3 of CMKLR1” value in assay [2] is “able to bind the polypeptide forming the loop EL3 of CMKLR1”. Moreover, in assay [3] (FIG. 7A), the PMNs number entry was “slightly less”. Further, the macrophages number entry in assay [3] (FIG. 7B) was “slightly less”. For the same molecule, in assay [3] (FIG. 7C), the resolution index result is listed as “better resolution index”.
